Experimental data from patent US20220054419A1.

Biological target: hemagglutinin (HA) of A/California/4/09 (H1N1) on pseudotyped lentivirus (Influenza virus A/California/04/2009 (H1N1)) (UniProt P26140)
Experiment: cell-based or functional assay

monoclonal antibody CH65 (anti-receptor binding site of HA)
Neutralization IC50, lentivirus pseudotype neutralization assay: 6.25 µg/mL

monoclonal antibody FI6v3 (anti-HA stem region)
Neutralization IC50, lentivirus pseudotype neutralization assay: 0.13 µg/mL

monoclonal antibody 441D6
Neutralization IC50, lentivirus pseudotype neutralization assay: 0.16 µg/mL
